Assay results reported in article PMC2575614.

Target: HLA-B*2705 heavy chain with the C-terminal sv5 epitope tag (human)
Test: two-dimensional gel electrophoresis (non-reducing) and immunoblot; 24-hour stimulated KG-1.B27sv5 cell lysates resolved under non-reducing conditions, immunoblot with HC10 or pK

- stoichiometry N: 2
Substance: HLA-B*2705 heavy chain with the C-terminal sv5 epitope tag (natural protein)
